Tested on: Fusarium graminearum (Strain IFA 65)
Assay type: cell-based

B1: LserFCP1-77: 77-residue polypeptide of SEQ ID No. 1 (Lucilia sericata), prepared by solid-phase synthesis or recombinantly in E. coli (protein, listed as Lucilia sericata)
chain: QHGYGAGGHGQQGYGSQHSSHAPQGGHVVREQGFSGHVHEQQAGHHHEAGHHEQAGHHEQSGQQVHGQGHGYKSHGY
Molecule B1 has an IC50 (Fusarium graminearum spores, 24 h at room temperature, from dose-effect relationship (FIG. 8), read-out: concentration in which a half-maximum inhibition (of spore germination) occurred) of 1600 nM.

B2: LserFCP1-73: 73-residue polypeptide of SEQ ID No. 2; LserFCP1-77 lacking the last four residues, made recombinantly in E. coli (protein, listed as Lucilia sericata)
chain: QHGYGAGGHGQQGYGSQHSSHAPQGGHVVREQGFSGHVHEQQAGHHHEAGHHEQAGHHEQSGQQVHGQGHGYK
With B2 the “inhibition of spore germination” value (100 μM, compared to a water control (FIG. 9)) was “complete inhibition”.
